Data on 37 sequences can be found in the supplement of paper PMC7877785.

The nature of the series: self-splicing fitness, log relative to wild type (ln ratio); higher = more splicing; Tetrahymena group I intron in knt gene, E. coli kanamycin selection, DiMSum; sequences stand for … in CUCUCU…GGAGGGAAAAGUUAUCAGGCAUGCACCUGGUAGCUAGUCUUUAAACCAAUAGAUUGCAUCGGUUUAAAAGGCAAGACCGUCAAAUUGCGGGAAAGGGGUCAACAGCCGUUCAGUACCAAGUCUCAGGGGAAACUUUGAGAUGGCCUUGCAAAGGGUAUGGUAAUAAGCUGACGGACAUGGUCCUAACCACGCAGCCAAGUCCUAAGUCAACAGAUCUUCUGUUGAUAUGGAUGCAGUUCACAGACUAAAUGUCGGUCGGGGAAGAUGUAUUCUUCUCAUAAGAUAUAGUCGGACCUCUCCUUAAUGGGAGCUAGCGGAUGAAGUGAUGCAACACUGGAGCCGCUGGGAACUAAUUUGUAUGCGAAAGUAUAUUGAUUAGUUUUGGAGUACUCGUGGUCG
The gist of the method:
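Library with all eight P1ex-region intron nucleotides randomised, intron inside the knt kanamycin-resistance gene on pET-22b(+), in E. coli BL21(DE3). Cells grew overnight at 37°C or 30°C on LB agar with or without 25 μg/mL kanamycin (plus 100 μg/mL carbenicillin, 50 μM IPTG, 0.2% rhamnose), in six replicate transformations. Pooled colonies were amplicon-sequenced on Illumina HiSeq 2500. DiMSum fitness is the error-weighted combination of wild-type-normalised replicate fold changes, kanamycin versus none.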

± gives the uncertainty stated by the source.

For GUCAAGCAAUAUUACGGAGU, the “self-splicing fitness (ln)” value by setting is: (30 °C) -2.1 ± 0.12; (37 °C) -0.536 ± 0.12.

Regarding UAAGAGCAAUAUUACGUCUU, the “self-splicing fitness (ln)” value (30 °C) is -3.28 ± 0.2 and the “self-splicing fitness (ln)” value (37 °C) was -1.49 ± 0.18. The like results for GGCAAGCAAUAUUACGGCGA were, in that order, -0.134 ± 0.082 and 0.235 ± 0.11. For UUCAAGCAAUAUUACGAGGA, in that order: -2.22 ± 0.14 and -1.43 ± 0.13. For ACCCAGCAAUAUUACGUACU, in that order: -1.12 ± 0.059 and -0.926 ± 0.08. Turning to CAAGAGCAAUAUUACGCCGC, the “self-splicing fitness (ln)” value (30 °C) is -2.67 ± 0.25 and the “self-splicing fitness (ln)” value (37 °C) is -1.99 ± 0.26. For GGUAAGCAAUAUUACGCCAG, in that order: -4.42 ± 0.27 and -2.13 ± 0.29. For AGAAAGCAAUAUUACGUUCG, the “self-splicing fitness (ln)” value is -0.631 ± 0.07 (30 °C) and 0.484 ± 0.092 (37 °C). The like results for UUUAAGCAAUAUUACGGUGG were, in that order, -0.86 ± 0.087 and -0.646 ± 0.12. As to GUCCAGCAAUAUUACGCAUU, the “self-splicing fitness (ln)” value runs as follows: (30 °C) -0.492 ± 0.053; (37 °C) 0.587 ± 0.073. For AGCCAGCAAUAUUACGAGUA, in that order: -3.06 ± 0.22 and -1.5 ± 0.16. For UCCUAGCAAUAUUACGGCUG, in that order: -3.67 ± 0.39 and -1.37 ± 0.47.

With AACAAGCAAUAUUACGCAUA, the “self-splicing fitness (ln)” value was -1.8 ± 0.12 (30 °C) and -1.04 ± 0.13 (37 °C). The like results for GGUGAGCAAUAUUACGGGUG were, in that order, -3.18 ± 0.26 and -2.7 ± 0.27. For UAACAGCAAUAUUACGUGCC, in that order: -3.5 ± 0.22 and -1.9 ± 0.15. The like results for UUUGAGCAAUAUUACGACAA were, in that order, -1.26 ± 0.16 and -0.94 ± 0.17. For UCUCAGCAAUAUUACGUCCA, the “self-splicing fitness (ln)” value is, setting by setting: (30 °C) -2.72 ± 0.16; (37 °C) -1.35 ± 0.2. For CAGUAGCAAUAUUACGUUUU, the “self-splicing fitness (ln)” value runs as follows: (30 °C) -3.8 ± 0.24; (37 °C) -3.01 ± 0.24.

Regarding CGGGAGCAAUAUUACGGUGA, under “30 °C”, the “self-splicing fitness (ln)” value was -2.3 ± 0.33. Consider ACGUAGCAAUAUUACGUCGU, for which the “self-splicing fitness (ln)” value (30 °C) is -3.52 ± 0.15 and the “self-splicing fitness (ln)” value (37 °C) is -2.59 ± 0.15. The like results for UAGGAGCAAUAUUACGUGUC were, in that order, -3.27 ± 0.34 and -1.82 ± 0.27. The like results for ACCGAGCAAUAUUACGUGAA were, in that order, -4.46 ± 0.17 and -2.3 ± 0.14. In the case of GAUUAGCAAUAUUACGAAGC, the “self-splicing fitness (ln)” value runs as follows: (30 °C) -2.4 ± 0.21; (37 °C) -2.28 ± 0.21.

Regarding UCCAAGCAAUAUUACGAGCU, the “self-splicing fitness (ln)” value reads like this: (30 °C) -3.58 ± 0.16; (37 °C) -3 ± 0.25. As to CAGGAGCAAUAUUACGUGAG, the “self-splicing fitness (ln)” value runs as follows: (30 °C) -1.42 ± 0.084; (37 °C) -0.711 ± 0.098. The like results for GCUUAGCAAUAUUACGGCGC were, in that order, -0.263 ± 0.14 and 0.127 ± 0.16. The like results for GCCGAGCAAUAUUACGUCCA were, in that order, -1.27 ± 0.48 and -1.32 ± 0.32. With CGUCAGCAAUAUUACGUUUG, the “self-splicing fitness (ln)” value by setting is: (30 °C) -1.14 ± 0.062; (37 °C) -0.102 ± 0.079. For AGGCAGCAAUAUUACGACAA, in that order: -1.26 ± 0.14 and -0.976 ± 0.13.

In the case of CUUCAGCAAUAUUACGUCUU, the “self-splicing fitness (ln)” value was -3.19 ± 0.16 (30 °C) and -3.67 ± 0.42 (37 °C). The like results for GGCCAGCAAUAUUACGAUUC were, in that order, -0.666 ± 0.067 and -0.139 ± 0.099.

ACCCAGCAAUAUUACGCCUU: the “self-splicing fitness (ln)” value runs as follows: (30 °C) -0.51 ± 0.062; (37 °C) 0.161 ± 0.081. In the case of AAAAAGCAAUAUUACGUCGC, the “self-splicing fitness (ln)” value runs as follows: (30 °C) -2.7 ± 0.26; (37 °C) -1.34 ± 0.17. Consider UUGGAGCAAUAUUACGCUGU, for which the “self-splicing fitness (ln)” value by setting is: (30 °C) -3.36 ± 0.41; (37 °C) -2.35 ± 0.37.

On to CGCUAGCAAUAUUACGUCUG, for which the “self-splicing fitness (ln)” value is -0.182 ± 0.078 (30 °C) and 0.774 ± 0.089 (37 °C). For UAAUAGCAAUAUUACGCGAA, in that order: -3.51 ± 0.24 and -0.873 ± 0.14.

CACUAGCAAUAUUACGCUUA: the “self-splicing fitness (ln)” value was -2.65 ± 0.21 (30 °C) and -1.2 ± 0.13 (37 °C).
